Source: PMC7615710
pKd: −log10 of the molar value.

Key:
PP1α (Homo sapiens) = PP1α (Homo sapiens) (UniProt P62136); details: cited from earlier work
[1] = biological target: Bin1 SH3 domain (513-593) (human) (UniProt O00499); assay: ITC; 450 or 300 uM NS5A PRR peptide (syringe) titrated to 30 uM ASPP CTD or SH3 domain (cell), 12 °C, 25 mM HEPES pH 7.5, 150 mM NaCl, 500 uM TCEP; 25 steps of 10 ul; AB hetero association model (SEDPHAT)
Bin1 SH3 domain (513-593) (human), sequence (O00499 513-593): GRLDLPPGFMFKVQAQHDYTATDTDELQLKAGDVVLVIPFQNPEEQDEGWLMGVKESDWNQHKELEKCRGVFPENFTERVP

PP1α (Homo sapiens), sequence (P62136 2-330): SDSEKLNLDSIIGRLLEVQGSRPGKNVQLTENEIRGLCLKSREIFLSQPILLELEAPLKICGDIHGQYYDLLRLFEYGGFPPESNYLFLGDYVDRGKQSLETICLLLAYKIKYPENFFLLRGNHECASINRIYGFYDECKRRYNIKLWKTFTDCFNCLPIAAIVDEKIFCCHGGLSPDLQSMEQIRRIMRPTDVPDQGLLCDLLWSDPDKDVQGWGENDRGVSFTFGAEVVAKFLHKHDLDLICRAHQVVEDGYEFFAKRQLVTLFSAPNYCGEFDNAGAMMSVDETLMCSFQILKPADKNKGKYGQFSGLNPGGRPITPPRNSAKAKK
ASPP2 SH3, sequence (Q13625 1054-1122): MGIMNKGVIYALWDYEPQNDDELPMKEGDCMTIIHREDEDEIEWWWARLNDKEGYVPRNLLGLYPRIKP

ASPP2 SH3 (from UniProt Q13625)
pKd (PP1α (Homo sapiens)): 6.85

HCV [1a.1] NS5A PRR peptide (peptide; other documents disagree on this pair)
pKd [1]: 7.52
